Data from US6846910B2, “Isolated proteins containing portions of FAPα and other proteins” (Ludwig Institute for Cancer Research, priority 1994, dated 2005).
Values belong to the molecule of their own block, whether it stands above or below them.

Experiments:
[1] = biological target: T1, 170 kD FAPα dimer (Homo sapiens, UniProt Q12884, A207P/T229K/T354R); assay: Gelatin zymography with added treatments; format: biochemical
T1 construct: expressed in transfected cells; host or cells: 293 cells stably transfected with pFAP.38 (293-FAP)
T1 sequence (Q12884 1-760 A207P/T229K/T354R): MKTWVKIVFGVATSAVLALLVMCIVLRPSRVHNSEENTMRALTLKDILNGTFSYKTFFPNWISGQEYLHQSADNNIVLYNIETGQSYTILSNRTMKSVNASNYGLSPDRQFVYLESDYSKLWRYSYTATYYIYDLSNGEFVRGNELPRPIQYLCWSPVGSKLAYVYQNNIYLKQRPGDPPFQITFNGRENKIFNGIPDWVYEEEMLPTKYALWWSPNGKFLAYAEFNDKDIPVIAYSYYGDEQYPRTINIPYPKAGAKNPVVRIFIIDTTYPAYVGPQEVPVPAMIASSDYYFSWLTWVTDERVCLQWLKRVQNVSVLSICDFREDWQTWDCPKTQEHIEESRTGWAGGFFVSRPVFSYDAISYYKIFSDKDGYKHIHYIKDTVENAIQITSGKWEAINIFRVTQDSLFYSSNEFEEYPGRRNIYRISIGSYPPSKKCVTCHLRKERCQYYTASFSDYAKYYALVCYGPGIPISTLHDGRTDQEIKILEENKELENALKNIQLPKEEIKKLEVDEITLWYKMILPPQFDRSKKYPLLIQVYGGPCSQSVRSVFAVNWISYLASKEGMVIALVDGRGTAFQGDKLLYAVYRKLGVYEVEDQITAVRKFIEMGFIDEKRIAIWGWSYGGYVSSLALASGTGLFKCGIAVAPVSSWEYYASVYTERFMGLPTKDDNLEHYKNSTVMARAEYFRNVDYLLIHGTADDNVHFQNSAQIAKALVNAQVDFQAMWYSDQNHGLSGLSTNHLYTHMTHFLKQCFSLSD
Experimental: Extracts of 293-FAP cells were prepared, using an extraction buffer (0.15M NaCl, 0.05M Tris-HCl, pH 7.4, 10 mM MgCl2, 1 percent Triton X-114), were cleared by centrifugation (4,000×g, 10 minutes at 40° C.), and phase partitioned at 37° C. for 10-20 minutes. This was followed by further centrifugation (4000×g, 20 minutes at 20-25° C.) Detergent phases were diluted with buffer (0.15M NaCl, 0.05M Tris-HCl pH 7.4, 5 mM CaCl2, 5 mM MgCl2, 0.75% Empigen BB), and separated on concanavalin A-Sepharose following Rettig et al., supra. Any concanavalin A bound fractions were eluted with 0.25M methyl-α-D-mannopyranoside in elution buffer 0.15M NaCl,0.05M Tris-HCl, pH 7.4, 5 mM CaCl2, 5 mM MgCl2, 0.1% Triton X-100), mixed with zymography sample buffer (0.25M Tris-HCl, pH 6.8, 8% SDS, 40% glycerol, 0.01% bromophenol blue), at a 3:1 ratio, and used for further analysis.
Aliquots of sample were loaded onto polyacrylamide gels containing 0.1% of either of gelatin or casein. Electrophoresis was then carried out in a Biorad Mini-Protein II system,.at 20 mA constant current for 1.5-2 hours, until the bromophenol blue dye fronts of samples had reached the lower end of the gel. The gel was removed and incubated for one hour at 20-25° C. in a 2.5% aqueous solution of Triton X-100 on a rotary shaker. The Triton X-100 solution was decanted, and replaced with enzyme buffer (0.05M Tris-HCl, pH 7.5, 0.2M NaCl, 5 mM CaCl2, 5 mM MgCl2, 0.02% Brij 35). The gel was then incubated at 37° C. or 41° C., followed by staining or destaining at room temperature. Gels were stained with 0.5% of Coomassie Brilliant Blue G-250 in an aqueous solution of 30% methanol and 10% acetic acid for 15, 30, and 60 minutes, respectively. Subsequently, gels were incubated for 15 minutes in an aqueous solution of 30% CH3OH and 5% glycerol, followed by drying between sheets of cellophane.

[2] = biological target: fibroblast activation protein alpha (human) (UniProt Q12884); assay: MHA rosetting assay on SW872 liposarcoma cells
[3] = biological target: fibroblast activation protein alpha (human) (UniProt Q12884); assay: MHA rosetting assay on COS-1 cells transfected with pFAP.38
[4] = test system: gelatin; assay: Gelatin zymography of 293-FAP cell extracts; format: biochemical; details: unboiled samples, approximately 170 kilodalton species
Experimental: (§1) Extracts of 293-FAP cells were prepared, using an extraction buffer (0.15M NaCl, 0.05M Tris-HCl, pH 7.4, 10 mM MgCl2, 1 percent Triton X-114), were cleared by centrifugation (4,000×g, 10 minutes at […]), and phase partitioned at 37° C. for 10-20 minutes. This was followed by further centrifugation (4000×g, 20 minutes at 20-25° C.) Detergent phases were diluted with buffer (0.15M NaCl, 0.05M Tris-HCl pH 7.4, 5 mM CaCl2, 5 mM MgCl2, 0.75% Empigen BB), and separated on concanavalin A-Sepharose following Rettig et al., supra. Any concanavalin A bound fractions were eluted with 0.25M methyl-α-D-mannopyranoside in elution buffer 0.15M NaCl,0.05M Tris-HCl, pH 7.4, 5 mM CaCl2, 5 mM MgCl2, 0.1% Triton X-100), mixed with zymography sample buffer (0.25M Tris-HCl, pH 6.8, 8% SDS, 40% glycerol, 0.01% bromophenol blue), at a 3:1 ratio, and used for further analysis.
(§2) Aliquots of sample were loaded onto polyacrylamide gels containing 0.1% of either of gelatin or casein. Electrophoresis was then carried out in a Biorad Mini-Protein II system,.at 20 mA constant current for 1.5-2 hours, until the bromophenol blue dye fronts of samples had reached the lower end of the gel. […]
Gelatinase activity was evaluated in accordance with Kleiner et al., Anal. Biochem. 218: 325-329 (1994), incorporated by reference in its entirety. […]

[5] = test system: casein; assay: Casein zymography of 293-FAP cell extracts; format: biochemical; details: gel with 0.1% casein
Experimental: as §1
as §2, with “gel. The gel was removed and incubated for one hour at 20-25° C. in a 2.5% aqueous solution of Triton X-100 on a rotary shaker.” for “gel.”

[6] = Membrane overlay assay for proteolytic activity; format: biochemical; details: Ala-Pro-, Gly-Pro-, Lys-Pro-7-amino-4-trifluoromethyl coumarin
Experimental: Proteolytic activity for defined amino acid sequence motifs were tested, using a well known membrane overlay assay. See Smith et al, Histochem. J. 24(9): 637-647 (1992), incorporated by reference. Substrates were Ala-Pro-7-amino-4-trifluoromethyl coumarin, Gly-Pro-7-amino-4-trifluoromethyl coumarin, and Lys-Pro-7-amino-4-trifluromethyl coumarin.

Molecule: OCCS [2-mercaptoethanol]
effect on gelatin degrading enzymatic activity ([1]; 5% added to extracts prior to SDS-PAGE): None of these treatments abolished the enzymatic activity

Molecule: O=C(O)CN(CCN(CC(=O)O)CC(=O)O)CC(=O)O [ethylenediamine N,N,N′,N′-tetraacetic acid]
effect on gelatin degrading enzymatic activity ([1]; 10 mM added to incubation buffer for gelatin zymography): None of these treatments abolished the enzymatic activity

Molecule: NC(=O)CI [iodoacetamide]
effect on gelatin degrading enzymatic activity ([1]; 5 um added to extracts prior to SDS-PAGE): None of these treatments abolished the enzymatic activity

Cell surface antigen expression (% positive cells) [2]: > 95% | Cell surface antigen expression (% positive cells) [3]: 40%
Molecule: monoclonal antibody F19

B1: FAPα: recombinant fibroblast activation protein alpha from 293-FAP cells, approximately 170 kilodalton dimeric species by SDS-PAGE of unboiled samples (protein)
chain: MKTWVKIVFGVATSAVLALLVMCIVLRPSRVHNSEENTMRALTLKDILNGTFSYKTFFPNWISGQEYLHQSADNNIVLYNIETGQSYTILSNRTMKSVNASNYGLSPDRQFVYLESDYSKLWRYSYTATYYIYDLSNGEFVRGNELPRPIQYLCWSPVGSKLAYVYQNNIYLKQRPGDPPFQITFNGRENKIFNGIPDWVYEEEMLPTKYALWWSPNGKFLAYAEFNDKDIPVIAYSYYGDEQYPRTINIPYPKAGAKNPVVRIFIIDTTYPAYVGPQEVPVPAMIASSDYYFSWLTWVTDERVCLQWLKRVQNVSVLSICDFREDWQTWDCPKTQEHIEESRTGWAGGFFVSRPVFSYDAISYYKIFSDKDGYKHIHYIKDTVENAIQITSGKWEAINIFRVTQDSLFYSSNEFEEYPGRRNIYRISIGSYPPSKKCVTCHLRKERCQYYTASFSDYAKYYALVCYGPGIPISTLHDGRTDQEIKILEENKELENALKNIQLPKEEIKKLEVDEITLWYKMILPPQFDRSKKYPLLIQVYGGPCSQSVRSVFAVNWISYLASKEGMVIALVDGRGTAFQGDKLLYAVYRKLGVYEVEDQITAVRKFIEMGFIDEKRIAIWGWSYGGYVSSLALASGTGLFKCGIAVAPVSSWEYYASVYTERFMGLPTKDDNLEHYKNSTVMARAEYFRNVDYLLIHGTADDNVHFQNSAQIAKALVNAQVDFQAMWYSDQNHGLSGLSTNHLYTHMTHFLKQCFSLSD
gelatin degrading activity [4]: observed to have gelatin degrading activity | proteolytic activity with casein as substrate [5]: not observed | cleavage of dipeptide substrates [6]: able to cleave all of the Ala-Pro, Gly-Pro, and Lys-Pro dipeptides tested
